According to patent US20230183661A1, “BICOMPATIBLE PEPTIDEBIOCOMPATIBLE PEPTIDES FOR INHIBITION OF AGGREGATION OF B-AMYLOID PROTEIN” (Catholic University Industry Academic Cooperation Foundation, priority 2017, published 2023):

Biological target: β-amyloid (Aβ) overexpressed in nerve cells (UniProt P05067)
Assay: Co-IP from N2a cells, relative score

Binding strength with β-amyloid: 1
Binder: ATKAVCVLKGDGPVQGIINFEQKESNGPVKVWGSIKGLT [Peptide 4 (β 1-3 fragment of SOD1)]
